Laboratory results from patent US20240076386A1 (Pfizer, published 2024).

Key:
[1] = biological target: T1, rabbit E-selectin (rabbit, UniProt P27113 24-495, limits assumed); test: SPR (BIAcore), single sensorgram per selectin
T1 sequence (looked up): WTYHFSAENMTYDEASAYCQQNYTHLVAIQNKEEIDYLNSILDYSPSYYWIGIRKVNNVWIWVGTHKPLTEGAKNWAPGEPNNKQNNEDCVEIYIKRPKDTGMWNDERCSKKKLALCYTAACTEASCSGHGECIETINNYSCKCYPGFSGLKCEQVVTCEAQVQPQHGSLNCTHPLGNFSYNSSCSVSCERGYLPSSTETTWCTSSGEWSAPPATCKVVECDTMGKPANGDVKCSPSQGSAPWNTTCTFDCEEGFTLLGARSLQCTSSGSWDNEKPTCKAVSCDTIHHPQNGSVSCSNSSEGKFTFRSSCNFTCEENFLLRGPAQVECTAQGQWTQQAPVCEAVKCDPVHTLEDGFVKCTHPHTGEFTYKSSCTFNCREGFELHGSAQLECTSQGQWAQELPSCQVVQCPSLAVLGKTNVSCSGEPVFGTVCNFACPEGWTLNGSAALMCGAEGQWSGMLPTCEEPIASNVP

[2] = biological target: T2, recombinant histidine-tagged human E-selectin (Sino Biologicals; 13025-H08H) (human, UniProt P16581 22-556); test: competition ELISA on soluble E-selectin vs sialyl Lewis A, further assays
T2 construct: also called recombinant human E-selectin; soluble recombinant human E-selectin
T2 sequence (looked up): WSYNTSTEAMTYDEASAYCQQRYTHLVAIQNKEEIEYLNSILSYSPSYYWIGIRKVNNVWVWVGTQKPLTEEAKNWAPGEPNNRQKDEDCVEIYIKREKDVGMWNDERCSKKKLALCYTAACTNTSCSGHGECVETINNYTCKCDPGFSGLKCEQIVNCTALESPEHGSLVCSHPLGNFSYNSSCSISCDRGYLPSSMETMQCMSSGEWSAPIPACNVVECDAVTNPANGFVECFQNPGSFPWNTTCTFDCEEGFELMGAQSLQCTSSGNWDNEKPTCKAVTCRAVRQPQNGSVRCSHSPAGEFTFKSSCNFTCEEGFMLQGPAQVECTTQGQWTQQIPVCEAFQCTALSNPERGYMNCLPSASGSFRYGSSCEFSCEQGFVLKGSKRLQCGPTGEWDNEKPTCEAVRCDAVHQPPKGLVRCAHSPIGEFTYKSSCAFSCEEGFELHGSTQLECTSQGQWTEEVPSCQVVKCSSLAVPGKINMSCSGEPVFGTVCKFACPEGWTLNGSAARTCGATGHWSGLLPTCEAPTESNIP
Experimental: (§1) Recombinant histidine-tagged E-selectin; cynomolgus monkey E-selectin (Sino Biologicals; 190169-C08H) and human E-selectin (Sino Biologicals; 13025-H08H) stock solutions were prepared to a final concentration of 3 μg/mL in phosphate buffered saline (PBS) without calcium and magnesium. One hundred μL per well of the diluted recombinant E-selectin protein was added into a Ni-NTA HisSorb 96 well plate (Qiagen, 35061) and plates were incubated on an orbital shaker at room temperature for 2 hours. Sialyl Lewis A polyacrylamide biotin, a synthetic E-selectin ligand (GlycoTech corporation 01-044), was conjugated to streptavidin HRP (horse radish peroxidase) (Ultra Streptavidin HRP, Thermo Scientific N504) and diluted in assay diluent containing 2 mM calcium chloride (BD OptEIA buffer; BD Biosciences, 555213).
(§2) Following the incubation, the plates were washed 5 times with 200 μL of wash buffer containing 2 mM of calcium chloride (50 mM TRIS [trisaminomethane]; 150 mM sodium chloride, 0.05% polysorbate 20, pH 7.4; 2 mM of calcium chloride). […] The final antibody concentration ranged from 200 nM to 0.09 nM and the final concentration of HRP conjugated Sialyl Lewis A was 5 μg/mL. […] Reactions were stopped with 100 μl of 2M sulfuric acid and absorbance read at 450 nm (Spectramax M5e). Data were analyzed and graphed using GraphPad Prism software (Version 8.0.2).

[3] = biological target: T3, recombinant histidine-tagged cynomolgus monkey E-selectin (Sino Biologicals; 190169-C08H) (cynomolgus monkey, UniProt A0A2K5U7H9 22-554); test: as above
T3 construct: also called recombinant cynomolgus monkey E-selectin
T3 sequence: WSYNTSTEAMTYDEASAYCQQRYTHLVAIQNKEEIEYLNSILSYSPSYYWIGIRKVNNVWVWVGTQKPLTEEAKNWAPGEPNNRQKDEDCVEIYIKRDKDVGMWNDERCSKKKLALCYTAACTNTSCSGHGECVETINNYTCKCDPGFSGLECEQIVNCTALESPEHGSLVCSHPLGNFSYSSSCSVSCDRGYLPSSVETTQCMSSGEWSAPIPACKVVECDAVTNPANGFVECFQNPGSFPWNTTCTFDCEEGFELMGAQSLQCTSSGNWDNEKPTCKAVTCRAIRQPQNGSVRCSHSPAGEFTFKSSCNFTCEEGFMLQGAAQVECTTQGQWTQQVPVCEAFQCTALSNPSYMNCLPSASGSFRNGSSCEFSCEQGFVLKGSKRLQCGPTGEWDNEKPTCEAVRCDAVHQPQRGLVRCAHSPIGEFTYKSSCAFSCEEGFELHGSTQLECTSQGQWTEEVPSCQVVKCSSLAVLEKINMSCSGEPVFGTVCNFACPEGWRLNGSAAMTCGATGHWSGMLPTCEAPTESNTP
Experimental: as §1, §2

[4] = biological target: T2, recombinant histidine-tagged human …; test: neutralization of sialyl Lewis A ligand binding, soluble recombinant protein, competition ELISA
Experimental: as §1

[5] = biological target: T3, recombinant histidine-tagged cynomolgus …; test: as above
Experimental: as §1

B1: optimized anti-E-selectin antibody 1444 (antibody, human IgG1, kappa, V domains shown)
VH: EVQLVESGGGLVQPGGSLRLSCAASGYAIRSAYMHWVRQAPGKGLEWVARIDPANGNTIYVDSVTGRFTISADNAKNSAYLQMNSLRAEDTAVYYCAMDLYSTSEYWGQGTLVTVSS
VL: DIQMTQSPSSLSASVGDRVTITCKTSQNIERYLNWYQQKPGKAPKLLIYAASSLQSGVPSRFSGSGSGTDFTLTISSLQPEDFATYFCLQDNAWPLTFGQGTKVEIKR
notes: effector-null human IgG1, kappa
- binding result [1]: no binding
- IC50 [2]: 2.91 nM
- IC50 [3]: 2.45 nM
- IC50 [4]: 2.87 to 3.01 nM
- IC50 [5]: 2.39 to 2.91 nM
